Results from patent US20210206856A1 (PANDION OPERATIONS, published 2021).

T1: mouse MAdCAM expressed on cells (mouse, UniProt Q61826 22-405)
T1 construct: whole, on cells
T1 sequence (looked up): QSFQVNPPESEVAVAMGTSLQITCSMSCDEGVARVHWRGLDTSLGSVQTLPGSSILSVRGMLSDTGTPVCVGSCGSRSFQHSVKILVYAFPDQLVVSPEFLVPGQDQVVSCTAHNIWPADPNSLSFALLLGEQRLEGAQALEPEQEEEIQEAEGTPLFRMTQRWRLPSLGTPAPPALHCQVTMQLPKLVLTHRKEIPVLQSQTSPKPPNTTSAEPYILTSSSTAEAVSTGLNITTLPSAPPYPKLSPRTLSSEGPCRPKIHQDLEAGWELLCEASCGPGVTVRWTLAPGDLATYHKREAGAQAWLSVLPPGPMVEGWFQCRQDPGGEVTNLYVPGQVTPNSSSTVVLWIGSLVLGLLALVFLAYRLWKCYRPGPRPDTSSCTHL

T2: human MAdCAM expressed on cells (human, UniProt Q13477 19-382)
T2 construct: whole, on cells; also called MADCAM1
T2 sequence (looked up): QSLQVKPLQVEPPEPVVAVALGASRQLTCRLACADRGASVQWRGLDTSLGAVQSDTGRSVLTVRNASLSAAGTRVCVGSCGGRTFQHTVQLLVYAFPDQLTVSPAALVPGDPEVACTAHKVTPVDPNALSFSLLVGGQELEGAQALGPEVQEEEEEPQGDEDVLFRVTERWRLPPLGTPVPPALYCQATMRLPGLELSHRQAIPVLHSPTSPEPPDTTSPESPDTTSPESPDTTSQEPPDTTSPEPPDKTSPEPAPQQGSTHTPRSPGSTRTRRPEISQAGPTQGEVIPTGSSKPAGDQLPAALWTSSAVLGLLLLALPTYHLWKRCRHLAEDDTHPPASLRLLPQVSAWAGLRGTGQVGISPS


What was measured:
[1] = molecular target: T1, mouse MAdCAM expressed on cells; test: cell binding
[2] = molecular target: T2, human MAdCAM expressed on cells; test: cell binding

Binder	binding result [1]	binding result [2]
MAdCAM Antibody Table 2 Clone 9 (antibody, human IgG1, V domains shown) VH: QVQLVQSGAEVKKPGASVKVSCKASGYTFTSYYMHWVRQAPGQGLEWMGIINHSGGSTSYAQKFQGRVTMTRDTSTSTVYMELSSLRSEDTAVYYCARPYSGWYFAFDIWGQGTLVTVSS VL: not shown	no binding	
MAdCAM Antibody Table 2 Clone 7 (antibody, human IgG1, V domains shown) VH: EVQLLESGGGLVQPGGSLRLSCAASGFTFSDYQMSWVRQAPGKGLEWVAIISHADGGFKDYADSVKGRFTISRDNSKNTLYLQMNSLRAEDTAVYYCAKPYSSGWSAVYYFDYWGQGTLVTVSS VL: DIQMTQSPSSLSASVGDRVTITCRASRGITNDLGWYQQKPGKAPKLLIYAASTLQSGVPSRFSGSGSGTDFTLTISSLQPEDFATYYCQQAYSFPWTFGQGTKVEIK	binds	binds
MAdCAM Antibody Table 2 Clone 10 (antibody, human IgG1, V domains shown) VH: EVQLLESGGGLVQPGGSLRLSCAASGFMFGDYAMHWVRQAPGKGLEWVSAISGSGGSTYYADSVKGRFTISRDNSKNTLYLQMNSLRAEDTAVYYCAKDLVVAGIWYFDLWGRGTLVTVSS VL: DIQMTQSPSSLSASVGDRVTITCRASQGISNNLNWYQQKPGKAPKLLIYDASSLESGVPSRFSGSGSGTDFTLTISSLQPEDFATYYCQQTHSFPSTFGQGTKLEIK	binds	binds
MAdCAM Antibody Table 2 Clone 1 (antibody, human IgG1, V domains shown) VH: EVQLLESGGGLVQPGGSLRLSCAASGFTFSSYGMHWVRQAPGKGLEWVAVISDDGSDKYYADSVKGRFTISRDNSKNTLYLQMNSLRAEDTAVYYCTTSKYYYYYGMDVWGQGTTVTVSS VL: DIQMTQSPSSLSASVGDRVTITCQASQDISKSLNWYQQKPGKAPKLLIYAASSLQSGVPSRFSGSGSGTDFTLTISSLQPEDFATYYCQQGYSTPLTFGGGTKVEIK	binds	binds
MAdCAM Antibody Table 2 Clone 11 (antibody, human IgG1, V domains shown) VH: EVQLLESGGGLVQPGGSLRLSCAASGFTFSDYYMNWVRQAPGKGLEWVSVIGESGGSTYYADSVKGRFTISRDNSKNTLYLQMNSLRAEDTAVYYCAADPVSRWPKHGGGDYWGQGTLVTVSS VL: DIQMTQSPSSLSASVGDRVTITCRASQGISSSLAWYQQKPGKAPKLLIYAASTLQSGVPSRFSGSGSGTDFTLTISSLQPEDFATYYCQQSYSTPWTFGQGTKVEIK	binds	binds
MAdCAM Antibody Table 2 Clone 8 (antibody, human IgG1, V domains shown) VH: QVQLVQSGAEVKKPGASVKVSCKASGYTFTGYHIHWVRQAPGQGLEWMGIINPSGGSTIYAQKFQGRVTMTRDTSTSTVYMELSSLRSEDTAVYYCAKDWSSWYLGPFDYWGQGTLVTVSS VL: DIQMTQSPSSLSASVGDRVTITCRASQNISSSLNWYQQKPGKAPKLLIYAASSLQSGVPSRFSGSGSGTDFTLTISSLQPEDFATYYCQQSYTTPYTFGQGTKVEIK	binds	binds

Other lines, results leading:

binding result [1]	binding result [2]	Binder
no binding		MAdCAM Antibody Table 2 Clone 35 (antibody, human IgG1, V domains shown) VH: QVQLVQSGAEVKKPGASVKVSCKASGYTFTGYYIHWVRQAPGQGLEWMGWMNPNSGNTGYAQKFQGRVTMTRDTSTSTVYMELSSLRSEDTAVYYCARDPGFLGYSSGGSSYDGWFDPWGQGTLVTVSS VL: DIQMTQSPSSLSASVGDRVTITCRASQSISSYLHWYQQKPGKAPKLLIYAASSLQSGVPSRFSGSGSGTDFTLTISSLQPEDFATYYCQQSYTAPYTFGQGTKLEIK
no binding		MAdCAM Antibody Table 2 Clone 27 (antibody, V domains shown) VH: EVQLLESGGGLVQPGGSLRLSCAASGFTFSSYQMSWVRQAPGKGLEWVSYISSSSTYTNYADSVKGRFTISRDNSKNTLYLQMNSLRAEDTAVYYCARANSSSWYDWYFDLWGQGTLVTVSS VL: not shown
no binding		MAdCAM Antibody Table 2 Clone 32 (antibody, human IgG1, V domains shown) VH: QVQLVQSGAEVKKPGASVKVSCKASGYTLTTWYMYWVRQAPGQGLEWMGWINPNRGATNYAQKFQGRVTMTRDTSTSTVYMELSSLRSEDTAVYYCAKGDLWGAMDVWGQGTLVTVSS VL: DIQMTQSPSSLSASVGDRVTITCRASDNIGSWLAWYQQKPGKAPKLLIYAASSLQSGVPSRFSGSGSGTDFTLTISSLQPEDFATYYCQQGYSTPPTFGQGTKVEIK
